Assay results: patent US5955431A, “Mast cell protease peptide inhibitors” (Brigham and Women's Hospital, Inc., priority 1998, dated 1999)
Where no end group is shown, it is not given here.

T1: recombinant mMCP-6-FLAG (Mus musculus, UniProt P21845)
T1 construct: endogenous pro-peptide followed by EK-susceptible peptide (Asp-Asp-Asp-Asp-Lys) (N, cleaved yes); made in house; host or cells: baculovirus; Spodoptera frugiperda 9 for virus, Trichoplusia ni High Five insect cells for expression
T1 sequence (P21845 32-276): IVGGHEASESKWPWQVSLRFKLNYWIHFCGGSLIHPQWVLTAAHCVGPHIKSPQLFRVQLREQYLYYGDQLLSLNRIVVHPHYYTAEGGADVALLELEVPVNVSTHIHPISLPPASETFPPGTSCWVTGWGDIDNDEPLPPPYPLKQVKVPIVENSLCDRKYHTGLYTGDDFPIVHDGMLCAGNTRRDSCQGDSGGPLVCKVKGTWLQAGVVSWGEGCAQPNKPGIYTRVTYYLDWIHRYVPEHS

T2: mMCP-6/heparin complex (Mus musculus, UniProt P21845)
T2 construct: endogenous pro-peptide followed by EK-susceptible peptide (Asp-Asp-Asp-Asp-Lys) (N, cleaved yes); made in house; host or cells: baculovirus; Spodoptera frugiperda 9 for virus, Trichoplusia ni High Five insect cells for expression
T2 sequence (P21845 32-276): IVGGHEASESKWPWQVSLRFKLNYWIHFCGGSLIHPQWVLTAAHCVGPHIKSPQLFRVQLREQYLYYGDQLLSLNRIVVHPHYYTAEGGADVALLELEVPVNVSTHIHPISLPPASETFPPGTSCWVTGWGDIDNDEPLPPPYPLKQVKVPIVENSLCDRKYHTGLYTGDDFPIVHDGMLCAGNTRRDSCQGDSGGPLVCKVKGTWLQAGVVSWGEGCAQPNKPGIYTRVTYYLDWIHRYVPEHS


Columns and labels:
recombinant mMCP-6-FLAG = molecular target: T1, recombinant mMCP-6-FLAG; experiment: screening of tryptase-specific phage peptide display library with mMCP-6-FLAG in the absence of heparin; type: biochemical; settings: library incubated 4 times with mMCP-6-FLAG, 30 clones
Source text: (§1) Screening of a Tryptase-Specific, Bacteriophage Peptide Display Library with mMCP-6--A peptide display library that encodes an altered pIII containing at its N terminus the FLAG peptide followed by an 8-residue hypervariable peptide was screened with recombinant mMCP-6-FLAG. Briefly, phage were obtained that express on their surface a pill fusion protein with an extension peptide consisting of the FLAG peptide and a hypervariable octamer peptide containing a Lys/Arg residue at the PI site. After the varied phages in the library were allowed to bind to the anti-FLAG IgG column, the immuno-affinity column was incubated with recombinant mMCP-6-FLAG in the presence or absence of heparin. Those phage recovered in the column's eluate were amplified, and the selection procedure was repeated one lo three times. By determining the nucleotide sequence of the relevant portion of the geneIII construct in each clone, the amino acid sequence of the mMCP-6-susceptible peptide in the random domain of the pIII fusion protein was deduced. To prepare the phage column used in the screening process, 10 ml of the phage-enriched supernatant was added to 2 ml of 20% polyethylene glycol (8 kDa; Sigma) and 2.5 M NaCl and the mixture incubated at 4° C. for 30 min. After a 30 min centrifugation at 10,000 g, the recombinant phage in the pellet were resuspended in 2 ml of 150 mM NaCl, 1 mM […], and 10 mM sodium phosphate, pH 7.0, and applied to a 1-ml affinity column containing the anti-FLAG M1 monoclonal antibody. The column was washed 3 times with 10 ml of the same pH 7.0 buffer to remove unbound phage. EK-activated mMCP-6-FLAG (~50 μg in 200 μl buffer) in the absence or presence of heparin glycosaminoglycan (~50 μg) was added, and the column was sealed and incubated at room temperature for 90 min. […] Log-phase E. coli were infected with the obtained phage to produce phagemid. Bacteria were again grown in 2×YT medium containing 2% glucose and the phagemid in the bacteria were converted to phage with the addition of helper phage. This screening procedure was repeated up to 4 times to select the phage in the library which are most susceptible to degradation by mMCP-6-FLAG.
(§2) E. coli was infected with resulting mMCP-6-FLAG-susceptible phage to generate phagemids. The infected bacteria were seeded onto a plate containing 1.5% agar, 2% Bacto-tryptone, 0.5% Bacto-yeast extract, 2% glucose, 0.09 M NaCl, 0.01 M MgCl2, and 100 μg/ml ampicillin. Individual clones were isolated and grown overnight at 37° C. in 2 ml of 2×YT medium containing 2% glucose with 50 μg/ml ampicillin. One ml of the overnight cultures were centrifuged at ~12,000 g for 5 min. The bacteria in the pellets were lysed and the DNAs were extracted with mini-prep method. The DNAs were digested with NotI and EcoRI restriction enzymes at 37° C. overnight. The digested DNA mini-preps were subjected to electrophoresis on a 1% agarose gel, and those individual phage clones with ~1300-bp inserts were selected for maxi-preparation of their DNAs using nucleobond DNA-binding columns (The Nest Group). The nucleotide sequences which encode the 8-mer, protease-susceptible peptide domains in the fusion proteins were determined.

mMCP-6/heparin complex = molecular target: T2, mMCP-6/heparin complex; experiment: screening of tryptase-specific phage peptide display library with mMCP-6-FLAG in the presence of heparin; type: biochemical; settings: for Clones (number of clones with this mMCP-6-susceptible peptide): equal weight amount of heparin
Source text: as §1, §2

[1] = test system: Swiss albino mouse skin-derived 3T3 fibroblasts; experiment: adhesion and growth of fibroblasts on fibronectin-coated culture dishes; type: cell-based
Description: However, these cells will become less adhesive and divide in vitro when they are trypsin treated. To determine if mMCP-6-FLAG could specifically alter the growth and/or adhesion of these cells, the fibroblasts were allowed to attach to replicate fibronectin-coated culture dishes and then were incubated for 15 min at 37° C. with buffer alone or buffer containing either pro-EK-mMCP-6-FLAG, mMCP-6-FLAG, mMCP-7-FLAG, or trypsin. […] SDS-PAGE/immunoblot analysis of the supernatants from the result cultures confirmed that fibronectin was degraded in the mMCP-6-FLAG-treated cultures but not in the pro-EK-mMCP-6-FLAG or mMCP-7-FLAG treated cultures.

| Clones (number of clones with this mMCP-6-susceptible peptide) (recombinant mMCP-6-FLAG) | Molecule | also measured |
| --- | --- | --- |
| 1 | ECRQRHTR | – |
| 1 | FISRRVCR | – |
| 1 | GPRLRHPR | – |
| 1 | LCAKRLYR | – |
| 1 | LIALRSTT | – |
| 1 | PDNQRYIT | – |
| 1 | PPPFRRSS | – |
| 1 | PYPPKRTP | – |
| 1 | QKRGREPR | – |
| 1 | QRTKRKHN | – |
| 1 | SLALRVWR | – |
| 1 | SLSSRQSP | Clones (number of clones with this mMCP-6-susceptible peptide) (mMCP-6/heparin complex; four rounds of treatment): 2; Clones (number of clones with this mMCP-6-susceptible peptide) (mMCP-6/heparin complex; two rounds of treatment): 3 |
| 1 | TGVHKPST | – |
| 2 | VRPVKSFR | – |

Continued, molecule first:

| Molecule | Clones (number of clones with this mMCP-6-susceptible peptide) (recombinant mMCP-6-FLAG) | also measured |
| --- | --- | --- |
| EEKKKHKK | 1 | – |
| IRFARSQA | 1 | – |
| KKIERRNT | 1 | – |
| LSTSRASI | 1 | – |
| NLRKRKIK | 1 | – |
| NSTVRKRK | 1 | – |
| PFTHKSLS | – | Clones (number of clones with this mMCP-6-susceptible peptide) (mMCP-6/heparin complex; two rounds of treatment): 1 |
| PKETKQTN | – | Clones (number of clones with this mMCP-6-susceptible peptide) (mMCP-6/heparin complex; four rounds of treatment): 1; Clones (number of clones with this mMCP-6-susceptible peptide) (mMCP-6/heparin complex; two rounds of treatment): 1 |
| PLILRSRA | 1 | – |
| PLPCKLDA | 1 | – |
| PTPLKHPR | 1 | – |
| RKPTKKNS | 1 | – |
| RNRQKT [SEQ. ID NO. 1] | – | susceptibility of the sequence to cleavage (mMCP-6/heparin complex; mMCP-6/heparin complex): susceptible to cleavage by the mMCP-6/heparin complex |
| RNRQKTNN | – | Clones (number of clones with this mMCP-6-susceptible peptide) (mMCP-6/heparin complex; four rounds of treatment): 4; Clones (number of clones with this mMCP-6-susceptible peptide) (mMCP-6/heparin complex; two rounds of treatment): 11 |
| RQNRRPSN | 1 | – |
| SPRPRSTP | 1 | – |
| SVLPKLRI | – | Clones (number of clones with this mMCP-6-susceptible peptide) (mMCP-6/heparin complex; four rounds of treatment): 1; Clones (number of clones with this mMCP-6-susceptible peptide) (mMCP-6/heparin complex; two rounds of treatment): 1 |
| TPLLKSWL | – | Clones (number of clones with this mMCP-6-susceptible peptide) (mMCP-6/heparin complex; four rounds of treatment): 7; Clones (number of clones with this mMCP-6-susceptible peptide) (mMCP-6/heparin complex; two rounds of treatment): 5 |
| VRPARALH | 1 | – |
| trypsin: serine protease used as comparison in fibroblast adhesion test (protein, UniProt P00760 24-246, looked up) Serine protease 1: IVGGYTCGANTVPYQVSLNSGYHFCGGSLINSQWVVSAAHCYKSGIQVRLGEDNINVVEGNEQFISASKSIVHPSYNSNTLNNDIMLIKLKSAASLNSRVASISLPTSCASAGTQCLISGWGNTKSSGTSYPDVLKCLKAPILSDSSCKSAYPGQITSNMFCAGYLEGGKDSCQGDSGGPVVCSGKLQGIVSWGSGCAQKNKPGVYTKVCNYVSWIKQTIASN | – | adhesion/shape of fibroblasts on fibronectin-coated dishes ([1]; 15 min at 37° C.): rapidly induced the cultured fibroblasts to round up; fibroblasts remaining attached to the culture dish ([1]; 40 min incubation): very few fibroblasts remained attached |
